The text below walks through data of patent US20050234225A1.

The target of this test is KDR-alkaline phosphatase (AP) soluble fusion protein (human) (UniProt P35968). In words: BIAcore SPR, KDR immobilized. For orientation: SPR reads the build-up and loss of mass on a sensor chip optically.
KDR-alkaline phosphatase (AP) soluble fusion protein (human), sequence (P35968 20-764): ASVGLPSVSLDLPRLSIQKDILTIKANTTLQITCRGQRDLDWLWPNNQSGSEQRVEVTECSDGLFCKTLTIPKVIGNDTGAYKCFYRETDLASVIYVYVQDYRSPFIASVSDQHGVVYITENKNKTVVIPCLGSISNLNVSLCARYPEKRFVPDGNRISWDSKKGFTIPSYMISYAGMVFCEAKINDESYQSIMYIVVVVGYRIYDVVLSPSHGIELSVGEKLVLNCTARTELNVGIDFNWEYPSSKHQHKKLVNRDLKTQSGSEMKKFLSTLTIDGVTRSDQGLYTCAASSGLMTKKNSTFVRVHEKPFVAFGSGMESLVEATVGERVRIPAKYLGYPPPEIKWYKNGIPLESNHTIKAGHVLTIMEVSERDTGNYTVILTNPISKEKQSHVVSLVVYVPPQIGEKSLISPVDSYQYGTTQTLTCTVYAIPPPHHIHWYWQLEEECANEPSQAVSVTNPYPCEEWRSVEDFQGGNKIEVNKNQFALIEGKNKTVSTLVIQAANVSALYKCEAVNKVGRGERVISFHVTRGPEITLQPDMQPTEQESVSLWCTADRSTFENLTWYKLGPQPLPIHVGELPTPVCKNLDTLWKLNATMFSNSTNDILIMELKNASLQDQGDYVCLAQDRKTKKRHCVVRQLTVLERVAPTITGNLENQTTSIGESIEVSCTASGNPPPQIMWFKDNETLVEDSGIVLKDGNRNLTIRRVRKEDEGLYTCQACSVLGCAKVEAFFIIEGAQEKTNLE

B1: p1C11 scFv (scFv, from another filing)
scFv: QVKLQQSGAELVGSGASVKLSCTTSGFNIKDFYMHWVKQRPEQGLEWIGWIDPENGDSDYAPKFQGKATMTADSSSNTAYLQLSSLTSEDTAVYYCNAYYGDYEGYWGQGTTVTVSSGGGGSGGGGSGGGGSDIELTQSPAIMSASPGEKVTITCSASSSVSYMHWFQQKPGTSPKLWIYSTSNLASGVPARFSGSGSGTSYSLTISRMEAEDAATYYCQQRSSYPFTFGSGTKLEIK
Broadly, the Kd is the equilibrium constant for the complex coming apart. High values mean a looser complex, low ones a tighter complex. What is called koff is a measure of how fast the partners let go of each other. Usually kon stands for the rate constant with which the complex forms. Read a low kon as slow association. For the molecule B1, the Kd was determined as 1.4 nM, the off-rate (koff) turned out to be 0.0001 s⁻¹ and the kon was determined as 77000 M⁻¹ s⁻¹.
